Data as given in the supplement of paper PMC9170038.

System: MS2 coat protein
Experiment: apparent KD of MS2 coat protein; designed switch direction (-1 OFF switch, 1 ON switch): -1; higher = weaker reporter binding
Outline: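 Transcription of designed RNA switches on Illumina chips was done by stalled E. coli RNA polymerase. SNAP-549-labelled MS2 coat protein was then titrated in doubling steps from 0.7 or 1.5 nM to 3 µM, with steps of 0.8–1.5 h at the lowest and 10–20 min at the highest concentration. The per-design median over clusters of curve-fitted normalised fluorescence is reported as apparent KD.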

[1] = input ligand: microRNA oligo, concentration not stated
[2] = Eterna round: R95, input ligand: FMN 200 uM
[3] = Eterna round: R95, input ligand: microRNA oligo, concentration not stated
[4] = Eterna round: R95, input ligand: none

| Sequence | apparent KD of MS2 coat protein (input ligand: FMN 200 uM) [nM] | apparent KD of MS2 coat protein [1] [nM] | apparent KD of MS2 coat protein (input ligand: none) [nM] | apparent KD of MS2 coat protein [2] [nM] | apparent KD of MS2 coat protein [3] [nM] | apparent KD of MS2 coat protein [4] [nM] |
| --- | --- | --- | --- | --- | --- | --- |
| CCCGUCGAUGUAGGAUAUGCCCGGGUCUCCCGGGCAGAAGGACAUGAGGAUCACCCAUGUUCAUGAGGAUCACCCGUGAAUGGG [Double but mutated MS2] (Eterna round: R96, puzzle: Exclusion NG 1) | 13.1 | 13 | 16.3 | – | – | – |
| CCCGUCGAUGUAGGAUAUGCCCGGGUCUCCCGGGCAGAAGGACAUGAGGAUCACCCAUGUUGAUGAGGAUCACCCAUCAAUGGG [Double but mutated MS2] (Eterna round: R96, puzzle: Exclusion NG 1) | 16.9 | 15.8 | 20.7 | – | – | – |
| CCCGUGUUAGGAUAUAUGGAAGAGCGGACGGGCGCUCCAAGGUAGAAGGAACAUGAGGAUCACCCAUGUAAUAA [Teleerdion] (Eterna round: R97, puzzle: Exclusion 4) | 42.6 | – | 28.6 | – | – | – |
| CCCUCACAUGAGGAUCACCCAUGUCAGGAUAUCUCAGUGCGUCCACACGGACACAUCAAGAGAAGGGACAAAAC [Maceedesbi] (Eterna round: R97, puzzle: Exclusion 1) | 26.3 | – | 18.6 | – | – | – |
| CCCUUGUGAGGAUAUUUUUAAAAUGCUAACCACAAUUUUAUGAAGAAGGUACAUGAGGAUCACCCAUGUUUCUC [Tried to obey the law of the pack] (Eterna round: R97, puzzle: Exclusion 4) | 20 | – | 21 | – | – | – |
| CCGAAAAGGAAGGAUAUGCUUGACGAAAGUCAAGCAGAAGGUCCUACAUGAGGAUCACCCAUGUGGUCCUUCGG [Mat - Exclusion 6 - Eli Mod - D36] (Eterna round: R97, puzzle: Exclusion 6) | 629 | – | 450 | – | – | – |
| CCGAAGUGGCGGUCCUAUGACAUGAGGAUCACCCAUGUACUUCGCCACAAGCUUUUUGCUCAUCUUAUAGUUCUCGG [Ator] (puzzle: Sensor v3, turn-off variant 1) | – | – | – | 16.4 | 25.1 | 16.4 |
| CCGACGUGAGGAUAUUAGAACGAGCAGACCUGAGCUCGUUCUGAGAAGGCACAUGAGGAUCACCCAUGUGAGAA [Eternabot (Original) Solution 50] (Eterna round: R97, puzzle: Exclusion 4) | 352 | – | 31.4 | – | – | – |
| CCGAGCAGACGGAGAUCCAACAUGAGGAUCACCCAUGUCUCAAAAGCUUUUUGCUCGUCUUAUCCUCCUCUGUUCUC [Legedi] (puzzle: Sensor v3, turn-off variant 1) | – | – | – | 27.6 | 200 | 25.7 |
| CCGCAAAUGCAGGAUAUCGUAUCGGAUACGAUACGAGAAGGGUAUACAUGAGGAUCACCCAUGUGUCCUAGCGG [Fiskers Ex 6 - 45] (puzzle: Exclusion 6) | – | – | – | 23.9 | 20.3 | 21.5 |
| CCGCAAAUGGAGGAUAUCGUAUCGGAUACGAUACGAGAAGGCCAAACAUGAGGAUCACCCAUGUGUCCUAGCGG [Fiskers Ex 6 - 37] (puzzle: Exclusion 6) | – | – | – | 30 | 14.2 | 18.6 |
| CCGCUCCGUGUAGGAUAUUGGCGUGCCCUGCGCCGAGAAGGACAUGAGGAUCACCCAUGUAUGUUAUUAUCACGCGUGGCGCAU [Design 77] (Eterna round: R96, puzzle: Exclusion NG 1) | 32.2 | 16.7 | 22 | – | – | – |
| CCGGAAAGGAAGGAUAUGCUAGACGAUAGUCUAGCAGAAGGUCCUACAUGAGGAUCACCCAUGUGGUCCUCCGG [Mat - Exclusion 6 - Eli Mod - D33] (Eterna round: R97, puzzle: Exclusion 6) | 274 | – | 1210 | – | – | – |
| CCGGAAAUGUAGGAUAUAGGAGUCGAUAGACACCUAGAAGGGCAUACAUGAGGAUCACCCAUGUGUCCUACCGG [Fiskers Ex 6 - 80] (puzzle: Exclusion 6) | – | – | – | – | 11.8 | – |
| CCGGCAUGAGGAUAUCCAUCUGGAUCAGACAAGAUCCUGAUGGAGAAGGCACAUGAGGAUCACCCAUGUUACGG [Mat - Exclusion 4 - Eli Mod - D56] (Eterna round: R97, puzzle: Exclusion 4) | 61.8 | – | 132 | – | – | – |
| CCGGCUGCUGUGAGGAUAUGCCUGUGGGUGCGUGGGUAGAAGGCACAUGAGGAUCACCCAUGUCCUGCGGUCCC [salish99_bmx4_r4_113] (Eterna round: R97, puzzle: Brourd's mod of Exclusion 4) | 63.9 | – | 66 | – | – | – |
| CCGGCUUAGGAGGAUAUCCCACCCGAAAGGGUGGGAGAAGGCCUAACAUGAGGAUCACCCAUGUGUCCUACCGG [Mod of Eli 15 - Jieux - Exclusion 6] (Eterna round: R97, puzzle: Exclusion 6) | 91.2 | – | 25.5 | – | – | – |
| CCGGUUCAUUAGGAUAUGCAGGUGAACGGUGCCGUAGAAGGAAUGACAUGAGGAUCACCCAUGUAGAGGAAGUG [Eternabot (L2) Solution 82] (Eterna round: R97, puzzle: Exclusion 6) | 36.8 | – | 55.1 | – | – | – |
| CCGUAACAUGAGGAUCACCCAUGUUAGGAUAUGUAGCGCUGGGCAUCCUCAGCUGGUUAUAGAAGGGACGAGGG [Eternabot (L2) Solution 15] (Eterna round: R97, puzzle: Exclusion 1) | 73.7 | – | 111 | – | – | – |
| CCGUCAUCAGGAUAUCCACAUCUCUACAUGAGGAUCACCCAUGUAAGCUUGGGUAAUAGCGGAGAAGGGAUAGACU [Eternabot (Original) Solution 20] (Eterna round: R97, puzzle: Exclusion 5) | 78.2 | – | 57.5 | – | – | – |
| CCGUGCACGCUGCGGUCCUACAUGAGGAUCACCCAUGUGGUCCGGUGGCGUGGGUCGCCGGACUUGGCUCGUCUUGU [salish99_S_TOV1_R5_017] (Eterna round: R97, puzzle: Sensor, turn-off variant 1) | 35.1 | – | 37.6 | – | – | – |
| CCUCAACAGUAGGAUAUCAUAAAACUAUUGUGAUGAGAAGGACUGACAUGAGGAUCACCCAUGUUAACGUGAUA [Exclusion 6 - 5:a] (puzzle: Exclusion 6) | – | – | – | – | 17.4 | – |
| CCUCCACAUGAGGAUCACCCAUGUCAGGAUAUCGUGCGCGCGUUUUCGGUCUUUCGCGCGAGAAGGGACGACUG (puzzle: Exclusion 1) | – | – | – | – | 24.1 | – |
